Laboratory results from patent US20180162911A1, “POLYPEPTIDES FOR THE DIAGNOSIS AND THE TREATMENT OF C3 NEF ASSOCIATED C3 GLOMERULOPATHY” (INSERM (INSTITUT NATIONAL DE LA SANTÉ ET DE LA RECHERCHE …, priority 2015, published 2018).
Where no end group is shown, it is not given here.

Tests used:
Properdin [1] = biological target: T1, Properdin (Homo sapiens, UniProt P27918); assay: Peptide inhibition assay: inhibition of the stabilization of the C3 convertase mediated by Properdin (haemolytic, membrane-bound C3bBb); type: biochemical; details: for % inhibition of the Properdin stabilization capacity: 50 ng Properdin pre-incubated with 10 μg peptide 2 h at room temperature, n=2 experiments; for dose dependence of inhibition of Properdin stabilization: different doses of peptides
T1 construct: purchased Calbiochem
T1 sequence (P27918 28-469): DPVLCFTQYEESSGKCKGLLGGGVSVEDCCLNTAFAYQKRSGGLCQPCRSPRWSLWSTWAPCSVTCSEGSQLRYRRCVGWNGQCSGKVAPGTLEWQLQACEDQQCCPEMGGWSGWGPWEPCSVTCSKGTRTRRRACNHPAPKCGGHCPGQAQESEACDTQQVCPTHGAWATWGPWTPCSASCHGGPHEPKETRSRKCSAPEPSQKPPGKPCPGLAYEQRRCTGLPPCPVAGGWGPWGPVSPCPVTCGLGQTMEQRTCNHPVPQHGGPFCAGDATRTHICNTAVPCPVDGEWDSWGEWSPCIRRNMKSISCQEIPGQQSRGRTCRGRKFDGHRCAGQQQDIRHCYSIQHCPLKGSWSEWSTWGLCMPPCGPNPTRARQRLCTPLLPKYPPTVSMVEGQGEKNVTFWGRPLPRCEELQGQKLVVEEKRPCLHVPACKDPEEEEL
Protocol: (§1) The ability of patient' IgG to stabilize a pre-formed membrane bound C3bBb was measured with EAC3bBb generated by the incubation of EC3b with appropriate concentration of FB and FD. Briefly, IgG was partially purified from plasma by chromatography on DEAE-cellulose and subsequently quantified by nephelometry. DEAE eluate contains IgG, and also low levels of contaminants such as Properdin and Factor H. Sheep erythrocytes EAC34b were incubated in presence of FB (Complement Technology) and FD (Sigma) to form the alternative convertase C3bBb. The convertase was allowed to decay in EDTA-containing buffer in presence of 400 μg of patient' IgG. Lysis was developed by the addition of rat serum. C3NeF stabilization was measured as the percentage of the residual convertase compared to the reference control without decay. The cut-off for positive C3NeF was determined as the mean+2 sd of the C3NeF stabilization of IgG from 30 healthy individuals.
Different mixes of 50 ng of Properdin and 10 μg of peptides were incubated at room temperature for 2 hours with gentle shaking in EDTA-containing buffer. As a control, Properdin was incubated with the peptide's dilution buffer. Membrane-bound convertase was formed as in the C3bBb assay. During the convertase decay step, cells were incubated with the mix of FP and peptides. FP amount was chosen in order to obtain 50% of residual convertase after the decay. Residual convertase was measured and data were expressed as percentage of inhibition (percentage of residual convertase compared to the control without peptide).

C3NeF (patient IgG) [2] = assay: Peptide inhibition assay with patients' IgG: reduction of C3NeF stabilization of the C3bBb convertase; type: biochemical, human; details: for decrease of % stabilization of P1 IgG: 100 μg IgG from P1 (stabilizes only C3bBb) taken as 100%, peptides pre-incubated overnight, n=3 experiments
Protocol: as §1
The test was performed as described earlier, but 80 μg of peptides was utilized and the incubation of IgG and peptides was made at 4° C. overnight. IgG amount was determined depending on their stabilization capacity, in order to obtain 50% of residual convertase after the decay.
Membrane-bound convertase was formed as in the C3bBb assay. During the convertase decay step, cells were incubated with a fixed dose of Peptides (80 μg) and patient' IgG (amount determined by the concentration of IgG leading to 50% of residual convertase). The concentration of IgG applied in the test was chosen depending on their C3NeF activity.

Properdin [3] = biological target: T1, Properdin; assay: ELISA, biotinylated peptides coated, binding of Properdin
Protocol: To investigate whether Properdin binds the peptides biotinylated peptides was coated onto ELISA plates and increased among of Properdin were incubated before adding anti human Properdin.

C3NeF (patient IgG) [4] = assay: Peptide inhibition assay with patients' IgG: reduction of C3NeF stabilization of the C3bBb convertase; type: biochemical, human; details: P1 IgG
[5] = biological target: T2, membrane bound C3bBb convertase (Homo sapiens, UniProt P00751+P01024); assay: C3b erythrocyte based C3bBb convertase stabilization / competition assay; type: biochemical
T2 construct: EAC3bBb generated by the incubation of EC3b with appropriate concentration of FB and FD; incubated in presence of FB (Complement Technology) and FD (Sigma) to form the alternative convertase C3bBb; purchased Complement Technology (FB); Sigma (FD); host or cells: sheep erythrocytes coated with C3b
T2 sequence (P01024 23-667 limits assumed): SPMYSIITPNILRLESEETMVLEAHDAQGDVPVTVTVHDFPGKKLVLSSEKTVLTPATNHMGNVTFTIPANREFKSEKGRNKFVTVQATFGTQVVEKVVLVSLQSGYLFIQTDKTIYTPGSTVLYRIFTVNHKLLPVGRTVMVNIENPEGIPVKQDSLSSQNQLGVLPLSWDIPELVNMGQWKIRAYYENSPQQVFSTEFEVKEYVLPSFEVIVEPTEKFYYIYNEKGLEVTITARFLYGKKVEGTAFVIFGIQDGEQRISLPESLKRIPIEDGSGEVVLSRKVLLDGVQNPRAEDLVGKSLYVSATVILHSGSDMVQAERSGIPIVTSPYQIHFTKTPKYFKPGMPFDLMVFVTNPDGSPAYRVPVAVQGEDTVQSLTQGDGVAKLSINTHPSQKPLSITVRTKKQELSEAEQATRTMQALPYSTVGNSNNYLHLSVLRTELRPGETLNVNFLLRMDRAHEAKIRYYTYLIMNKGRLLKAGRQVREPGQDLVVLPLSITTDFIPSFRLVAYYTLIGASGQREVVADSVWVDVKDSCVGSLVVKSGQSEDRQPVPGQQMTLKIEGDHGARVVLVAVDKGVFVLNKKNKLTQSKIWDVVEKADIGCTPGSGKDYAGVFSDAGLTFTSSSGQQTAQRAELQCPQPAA
T2 sequence (P01024 749-1663 limits assumed): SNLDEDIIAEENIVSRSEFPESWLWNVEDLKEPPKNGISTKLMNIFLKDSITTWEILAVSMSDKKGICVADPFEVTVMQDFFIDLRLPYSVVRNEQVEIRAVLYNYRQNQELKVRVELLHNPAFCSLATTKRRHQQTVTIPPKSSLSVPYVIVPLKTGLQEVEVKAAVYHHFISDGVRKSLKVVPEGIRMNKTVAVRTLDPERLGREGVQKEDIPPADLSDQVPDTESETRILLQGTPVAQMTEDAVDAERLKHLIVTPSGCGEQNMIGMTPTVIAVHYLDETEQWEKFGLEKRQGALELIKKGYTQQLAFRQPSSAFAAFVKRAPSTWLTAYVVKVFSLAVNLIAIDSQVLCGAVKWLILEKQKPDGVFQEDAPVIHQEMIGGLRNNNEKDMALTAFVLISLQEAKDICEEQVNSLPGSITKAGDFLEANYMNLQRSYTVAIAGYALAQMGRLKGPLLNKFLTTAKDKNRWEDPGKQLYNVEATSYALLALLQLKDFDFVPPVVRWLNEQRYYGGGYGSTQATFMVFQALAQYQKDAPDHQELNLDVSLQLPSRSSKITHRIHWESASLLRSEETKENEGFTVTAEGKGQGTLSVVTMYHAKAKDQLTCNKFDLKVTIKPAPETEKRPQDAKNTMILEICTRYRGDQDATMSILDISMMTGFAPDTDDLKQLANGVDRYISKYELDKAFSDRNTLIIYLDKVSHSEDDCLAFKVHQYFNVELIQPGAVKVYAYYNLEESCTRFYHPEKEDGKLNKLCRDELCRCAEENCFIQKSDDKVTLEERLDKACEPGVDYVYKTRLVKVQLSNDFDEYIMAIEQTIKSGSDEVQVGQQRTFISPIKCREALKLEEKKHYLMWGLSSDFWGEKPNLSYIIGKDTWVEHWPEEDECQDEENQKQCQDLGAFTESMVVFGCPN
T2 sequence (P00751 260-764 limits assumed): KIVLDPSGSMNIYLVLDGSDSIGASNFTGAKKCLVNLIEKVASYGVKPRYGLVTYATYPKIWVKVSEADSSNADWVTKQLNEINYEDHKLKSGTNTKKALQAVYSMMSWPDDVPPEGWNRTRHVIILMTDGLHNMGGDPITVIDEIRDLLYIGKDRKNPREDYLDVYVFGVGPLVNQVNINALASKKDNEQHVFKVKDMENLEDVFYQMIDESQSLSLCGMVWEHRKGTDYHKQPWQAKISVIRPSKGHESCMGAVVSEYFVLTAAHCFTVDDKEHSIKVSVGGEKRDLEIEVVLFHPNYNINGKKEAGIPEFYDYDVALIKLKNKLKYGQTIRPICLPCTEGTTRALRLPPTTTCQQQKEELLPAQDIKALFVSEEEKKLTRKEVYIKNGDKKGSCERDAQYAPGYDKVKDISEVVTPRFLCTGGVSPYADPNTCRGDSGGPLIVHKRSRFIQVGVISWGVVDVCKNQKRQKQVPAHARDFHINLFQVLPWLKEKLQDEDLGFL
Protocol: as §1
Membrane-bound convertase was formed as in the C3bBb assay. During the convertase decay step, cells were incubated with FP alone at a fixed dose (800 ng); 4 different doses of IgG alone and a mix of both IgG and FP at the same concentration. […]
[…] Residual convertase was measured and data were expressed as percentage of inhibition (percentage of residual convertase compared to the control without peptide).

[6] = biological target: C3bBbP Properdin-stabilized alternative pathway C3 convertase (UniProt P01024); assay: SPR (ProteOn XPR36), C3b on GLC chip, convertase formed with FB, FD and FP, control IgG injected
Sequence of C3bBbP Properdin-stabilized alternative pathway C3 convertase (P01024 23-1663 limits assumed, chain 1 of 3): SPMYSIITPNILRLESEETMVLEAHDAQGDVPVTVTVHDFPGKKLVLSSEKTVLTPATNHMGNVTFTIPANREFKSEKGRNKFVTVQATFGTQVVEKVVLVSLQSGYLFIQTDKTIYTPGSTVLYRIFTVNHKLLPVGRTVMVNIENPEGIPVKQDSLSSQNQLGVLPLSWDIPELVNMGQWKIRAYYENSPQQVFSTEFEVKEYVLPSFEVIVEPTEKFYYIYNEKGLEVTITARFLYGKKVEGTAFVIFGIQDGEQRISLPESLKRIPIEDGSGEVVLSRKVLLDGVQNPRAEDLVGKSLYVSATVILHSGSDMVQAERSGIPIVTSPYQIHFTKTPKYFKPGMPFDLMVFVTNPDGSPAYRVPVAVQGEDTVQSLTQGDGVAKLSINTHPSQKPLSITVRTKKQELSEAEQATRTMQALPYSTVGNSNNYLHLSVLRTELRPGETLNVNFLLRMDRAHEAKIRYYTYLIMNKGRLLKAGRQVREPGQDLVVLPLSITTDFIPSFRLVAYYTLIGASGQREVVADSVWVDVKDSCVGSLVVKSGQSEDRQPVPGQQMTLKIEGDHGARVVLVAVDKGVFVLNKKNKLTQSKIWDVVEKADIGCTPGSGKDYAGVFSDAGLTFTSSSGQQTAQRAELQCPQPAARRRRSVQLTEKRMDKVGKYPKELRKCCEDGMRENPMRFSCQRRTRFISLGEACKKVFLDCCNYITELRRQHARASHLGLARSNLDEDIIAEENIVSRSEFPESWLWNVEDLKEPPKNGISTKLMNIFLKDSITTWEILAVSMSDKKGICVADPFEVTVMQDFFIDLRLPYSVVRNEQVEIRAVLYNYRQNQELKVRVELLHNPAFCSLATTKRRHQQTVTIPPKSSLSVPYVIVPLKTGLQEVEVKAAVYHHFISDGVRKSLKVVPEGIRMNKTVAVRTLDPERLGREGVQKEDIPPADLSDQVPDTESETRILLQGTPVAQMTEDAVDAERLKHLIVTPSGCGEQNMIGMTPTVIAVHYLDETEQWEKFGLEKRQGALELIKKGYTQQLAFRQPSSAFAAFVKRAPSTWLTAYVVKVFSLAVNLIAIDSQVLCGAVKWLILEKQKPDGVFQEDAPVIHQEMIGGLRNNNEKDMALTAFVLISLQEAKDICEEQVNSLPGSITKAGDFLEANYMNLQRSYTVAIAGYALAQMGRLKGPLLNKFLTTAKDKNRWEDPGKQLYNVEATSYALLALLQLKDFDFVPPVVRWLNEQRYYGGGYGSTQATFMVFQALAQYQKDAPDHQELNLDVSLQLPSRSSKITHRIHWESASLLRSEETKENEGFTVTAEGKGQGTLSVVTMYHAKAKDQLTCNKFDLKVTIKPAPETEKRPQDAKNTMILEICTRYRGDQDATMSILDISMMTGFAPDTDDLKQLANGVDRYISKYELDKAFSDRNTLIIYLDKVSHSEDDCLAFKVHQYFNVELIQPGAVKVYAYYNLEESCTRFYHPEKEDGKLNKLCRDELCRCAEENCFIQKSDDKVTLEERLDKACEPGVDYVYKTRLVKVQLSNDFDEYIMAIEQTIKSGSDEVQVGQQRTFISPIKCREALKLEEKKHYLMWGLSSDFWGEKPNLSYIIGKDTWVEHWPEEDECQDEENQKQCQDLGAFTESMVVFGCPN
Sequence of C3bBbP Properdin-stabilized alternative pathway C3 convertase (P00751 260-764 limits assumed, chain 2 of 3, further chain): as the sequence (P00751 260-764 limits assumed) above
Sequence of C3bBbP Properdin-stabilized alternative pathway C3 convertase (P27918 28-469 limits assumed, chain 3 of 3, further chain): as the sequence (P27918 28-469) above

[7] = biological target: C3bBb alternative pathway C3 convertase (UniProt P01024); assay: SPR (ProteOn XPR36), C3b on GLC chip, convertase formed with FB and FD, control IgG injected
Sequence of C3bBb alternative pathway C3 convertase (P01024 23-667 limits assumed, form in doubt, chain 1 of 3): as the sequence (P01024 23-667 limits assumed) above
Sequence of C3bBb alternative pathway C3 convertase (P01024 749-1663 limits assumed, form in doubt, chain 2 of 3): as the sequence (P01024 749-1663 limits assumed) above
Sequence of C3bBb alternative pathway C3 convertase (P00751 260-764 limits assumed, form in doubt, chain 3 of 3, further chain): as the sequence (P00751 260-764 limits assumed) above

[8] = biological target: Properdin like C3NeF (3 patients' Ig positive for the C3bBb and negative for the C3bBbP test, Example 2); assay: cell-based or functional assay
Properdin [9] = biological target: Properdin (human, UniProt P27918 28-469); assay: cell-based or functional assay
Sequence of Properdin (human, UniProt P27918 28-469) (P27918 28-469 limits assumed): as the sequence (P27918 28-469) above

[10] = biological target: 3 C3NeF samples positive for the C3bBb and negative for the C3bBbP test (Example 1); assay: cell-based or functional assay
[11] = biological target: 3 C3NeF samples positive in both the C3bBb and the C3bBbP tests (Example 1); assay: cell-based or functional assay
[12] = biological target: Properdin enhancer C3NeF (4 patients' Ig positive in both tests, Example 2); assay: cell-based or functional assay
[13] = in presence of Properdin_enhancer C3NeF
[14] = in presence of Properdin_like C3NeF

“G-EDEEPWEQITVV YPKIWV (GEDEEPWEQITVVYPKIWV; Synthetic pep2) [peptide 2, 3 parts of C3b and one part of the vWFA domain of Bb]” was tested, and the “% inhibition of the Properdin stabilization capacity” value (from here on “% inhibition”) (Properdin [1]) was “no effect” and the “decrease of % stabilization of P1 IgG” value (C3NeF (patient IgG) [2]) was “remained in the same range”.

For “G-EERLDKACENNDSIGASNFTG (GEERLDKACENNDSIGASNFTG; Synthetic pep3) [peptide 3, residues of C3b and Bb, left side of the C3 convertase]”, the “% inhibition” value (Properdin [1]) was “no effect” and the “decrease of % stabilization of P1 IgG” value (C3NeF (patient IgG) [2]) was “remained in the same range”.

For “G-QDEENQKQCQDLGAFTESMVVFNIENLQKTVWD (GQDEENQKQCQDLGAFTESMVVFNIENLQKTVWD; N-terminal G; Synthetic pep1) [peptide 1, 22 residues of C3b (1616-1637) and 11 residues of Bb (308-318)]”, the “dose dependence of inhibition of Properdin stabilization” value (Properdin [1]) was “dose-dependent”, the “capacity of peptides to bind Properdin” value (Properdin [3]) was “binds” and the “decrease of % stabilization of P1 IgG” value (C3NeF (patient IgG) [2]) was 40%. The C3NeF stabilization diminished (C3NeF (patient IgG) [2]; 3 C3NeF samples positive for the C3bBb and negative for the C3bBbP test) was 20-40%, the C3NeF stabilization diminished (C3NeF (patient IgG) [2]; 3 C3NeF samples positive in both tests) was 20-70% and the “percentage of inhibition vs control” value (C3NeF (patient IgG) [2]; [13]) was “No significant difference”. For the same molecule, the “percentage of inhibition vs control” value (C3NeF (patient IgG) [2]; [14]) was “significantly higher” and the “dose dependence of inhibition of IgG stabilization” value (C3NeF (patient IgG) [4]) was “dose dependent”.

In the case of GAFTESMVVFLKHDEYNIE (Synthetic short1), the “stabilization of the Convertase diminished” value (C3NeF (patient IgG) [2]; Example 2, Properdin enhancer C3NeF (4 patients' Ig positive in both tests), 80 μg peptide) is reported as 40-80%, the “percentage of inhibition vs control” value (C3NeF (patient IgG) [2]; [13]) is reported as “significantly higher” and the “percentage of inhibition vs control” value (C3NeF (patient IgG) [2]; [14]) is reported as “No significant difference”.

“GENQKQCQDLGAFTESMVVFLKHDE (Synthetic pep1C3bExt)” was tested, and the “% inhibition” value (Properdin [1]) was “no effect”, the “percentage of inhibition vs control” value (C3NeF (patient IgG) [2]; [13]) was “No significant difference” and the “percentage of inhibition vs control” value (C3NeF (patient IgG) [2]; [14]) was “significantly higher”.

With “Properdin: complement protein Properdin (Calbiochem), stabilizes the C3 convertase” the “residual C3bBb lytic site” value ([5]; 800 ng of Properdin) was 60% and the “% of stabilization of C3 convertase” value ([5]; Properdin incubated with peptides' excipient) was 40%.

In the case of “SMVVFLKHDEYNIENLQKTVWD (Synthetic pep1BbExt) [22 aminoacids comprising 5 aa on C3b and 17 from FB]”, the “dose dependence of inhibition of Properdin stabilization” value (Properdin [1]) is reported as “dose-dependent”, the “capacity of peptides to bind Properdin” value (Properdin [3]) is reported as “binds” and the “percentage of inhibition vs control” value (C3NeF (patient IgG) [2]; [13]) is reported as “No significant difference”. For the same molecule, the “percentage of inhibition vs control” value (C3NeF (patient IgG) [2]; [14]) was “significantly higher”.

With “control IgG from healthy donors (antibody)” the IgG binding, residual (RU) [6] was 13 RU and the IgG binding, residual (RU) [7] was 1 RU.

With SMVVFLKHDEYNIENLQKTVWD (also: biotinylated when coated in ELISA) [Pep1BbExt] the stabilization diminished [8] was 20 to 40% and the “inhibition of the Properdin stabilization capacity” value (Properdin [9]) was 80%.

Molecule GQDEENQKQCQDLGAFTESMVVFNIENLQKTVWD (also: biotinylated when coated in ELISA) [Peptide 1] has a C3NeF stabilization diminished [10] of 20 to 40%, a stabilization diminished [8] of 20 to 40% and a C3NeF stabilization diminished [11] of 20 to 70%. For the same molecule, the “inhibition of the Properdin stabilization capacity” value (Properdin [9]) was 80%.

GENQKQCQDLGAFTESMVVFLKHDE [Pep1C3bExt] was tested, and the stabilization diminished [8] was 20 to 40%.

For GAFTESMVVFLKHDEYNIE [short1], the stabilization diminished [12] was 40 to 80%.
